Numbering of substitutions follows the chain as printed. In names and notes the source's numbering stands. Several values for one entry are separate records, joined by “and”; a condition that tells them apart may be missing. Equal values may be shown once. One block for each binder: values may come before it.
What was measured:
human IL-6 [1] = biological target: T1, human IL-6 (human, UniProt P05231 30-212); test: comparison of affinities after VL shuffling
T1 construct: Used where the text says only IL-6 or human IL-6 (crystals: rh IL-6 from Immunotools; cell assays) and for values averaged over the bacterial and eukaryotic IL-6 channels; also called interleukin-6; rh IL-6

[2] = biological target: T2, eukaryotically produced human IL-6 (human, UniProt P05231 30-212); test: SPR; purified Fab
T2 construct: also called eukIL-6; Euk IL-6

[3] = biological target: T3, bacterially produced human IL-6 (human, UniProt P05231 30-212); test: SPR; purified Fab
T3 construct: also called bactIL-6; prokaryotic IL-6

[4] = biological target: T4, bacterially produced human IL-6 (human, UniProt P05231 30-212); test: off-rate of Fab 111A7 variant on bact-hIL-6 (binding kinetics, SPR presumed; n = 3)
T4 construct: also called bact-hIL-6; BACT IL-6

[5] = biological target: IL-6 (bact-hIL-6, euk-hIL-6 and bact-cy IL-6; 'average binding' of Table 21); test: average binding level in the off-rate screen (unit not given; n = 3)
[6] = biological target: T5, eukaryotically produced human IL-6 (human, UniProt P05231 30-212); test: off-rate of Fab 111A7 variant on euk-hIL-6 (binding kinetics, SPR presumed; n = 3)
T5 construct: also called euk-hIL-6; EUK IL-6

[7] = biological target: T6, bacterially produced cynomolgus monkey IL-6 (cynomolgus monkey, UniProt P79341 28-212, limits assumed); test: off-rate of Fab 111A7 variant on bact-cy IL-6 (binding kinetics, SPR presumed; n = 3)
T6 construct: also called bact-cy IL-6; HIS-cyIL-6

[8] = biological target: T6, bacterially produced cynomolgus monkey …; test: off-rate of Fab 111A7 variant on bact-cy IL-6 (binding kinetics, SPR presumed; n = 4)
[9] = biological target: IL-6 (bact-hIL-6, euk-hIL-6 and bact-cy IL-6; 'average binding' of Table 21); test: average binding level in the off-rate screen (unit not given; n = 4)
[10] = biological target: T7, bacterially produced human IL-6 (human, UniProt P05231 30-212); test: SPR (Biacore), periplasmic Fab
T7 construct: Immobilised on the Biacore chip; also called BACT IL-6 (2-1); bactIL-6
Method: (§1) The binding kinetics of periplasmic fractions of bacteria containing the mutant Fabs were tested using surface Plasmon resonance (Biacore) and the off-rate for each mutant was determined.

[11] = biological target: T8, eukaryotically produced human IL-6 (human, UniProt P05231 30-212); test: SPR (Biacore), periplasmic Fab
T8 construct: Immobilised on the Biacore chip; also called Euk IL-6; EUK IL-6 (3-1)
Method: as §1

[12] = biological target: T5, eukaryotically produced human IL-6; test: off-rate of Fab 111A7 variant on euk-hIL-6 (binding kinetics, SPR presumed; n = 5)
[13] = biological target: T6, bacterially produced cynomolgus monkey …; test: off-rate of Fab 111A7 variant on bact-cy IL-6 (binding kinetics, SPR presumed; n = 5)
[14] = biological target: T4, bacterially produced human IL-6; test: off-rate of Fab 111A7 variant on bact-hIL-6 (binding kinetics, SPR presumed; n = 5)
[15] = biological target: IL-6 (bact-hIL-6, euk-hIL-6 and bact-cy IL-6; 'average binding' of Table 21); test: average binding level in the off-rate screen (unit not given; n = 5)
[16] = biological target: T4, bacterially produced human IL-6; test: off-rate of Fab 111A7 variant on bact-hIL-6 (binding kinetics, SPR presumed; n = 1)
[17] = biological target: T5, eukaryotically produced human IL-6; test: off-rate of Fab 111A7 variant on euk-hIL-6 (binding kinetics, SPR presumed; n = 1)
[18] = biological target: IL-6 (bact-hIL-6, euk-hIL-6 and bact-cy IL-6; 'average binding' of Table 21); test: average binding level in the off-rate screen (unit not given; n = 1)
[19] = biological target: T6, bacterially produced cynomolgus monkey …; test: off-rate of Fab 111A7 variant on bact-cy IL-6 (binding kinetics, SPR presumed; n = 1)
human IL-6 [20] = biological target: T1, human IL-6; test: SPR; purified Fab; average of the IL-6 channels
[21] = biological target: bacterially produced human IL-6 (human) (UniProt P05231); test: SPR (Biacore), purified Fab
[22] = biological target: eukaryotically produced human IL-6 (human) (UniProt P05231); test: SPR (Biacore), purified Fab
[23] = biological target: IL-6 surfaces of Table 8 (Bact, euk, cyno), average; test: SPR (Biacore), off-rate screen
[24] = biological target: bacterially produced human IL-6 (human) (UniProt P05231); test: SPR; purified Fab; ratio bact to euk IL-6
[25] = biological target: bacterially produced human IL-6 (human) (UniProt P05231); test: SPR; purified Fab
[26] = biological target: eukaryotically produced human IL-6 (human) (UniProt P05231); test: SPR; purified Fab

B1: Fab 68F2 (Fab, V domains shown)
VH: EVQLQESGPGLVKPSQTLSLTCTVSGGSITTRYYAWSWIRQPPGKGLEWMGVIDYDGDTYYSPSLKSRTSISWDTSKNQFSLQLSSVTPEDTAVYYCARDPDVVTGFHYDYWGQGTQVTVSS
VL: QSALTQPPLVSGTPGQTVTISCAGANNDIGTYAYVSWYQQLPGTAPKLLIYKVTTRASGIPSRFSGSKSGNTASLTISGLQSEDEADYYCASYRNFNNAVFGRGTHLTVLG
notes: VL-shuffled Fab of 20A4; for the crystal the Fab was made from 68F2 mAb with papain; also called 68F2 Fab
- fold affinity against parental 20A4 (human IL-6 [1]): 10 fold
- koff [2]: 3.3e-05 s⁻¹
- koff [3]: 8e-05 s⁻¹

B2: Fab 111A7M_A (CMC optimized variant of Fab 111A7, CDR3 methionine to alanine) (Fab, V domains shown)
VH: EVQLLESGGGLVQPGGSLRLSCAASGFTFSSYAMSWVRQAPGKGPEWVSRISAGGGSTYYGDSVKGRFTISRDNSKNTLYLQMNSLRAEDTAVYYCANRAGWGAGDYWGQGTLVTVSS
VL: QTVVTQEPSFSVSPGGTVTLTCGLSSGSVTASNYPGWYQQTPGQAPRALIYSTNDRHSGVPDRFSGSISGNKAALTITGAQAEDEADYYCALDIGDITEFGGGTQLTVL
notes: Fab; The VL is that of 111A7; also called M98X: A
- koff [4]: 8.5e-05 s⁻¹
- average binding [5]: 102
- koff [6]: 4.77e-05 s⁻¹
- koff [7]: 0.000131 s⁻¹

B4: 111A7 Fab (W98, M100) (Fab, V domains shown)
VH: B2 VH with A104M
VL: B2 VL
notes: also called WGM
- koff [10]: 5e-05 s⁻¹
- koff [11]: 4.67e-05 s⁻¹

B7: BE8-Fab (Fab, from another filing, V domains shown)
VH: QVTLKESGPGILKPSQTLSLTCSFSGFSLSTSGMGVGWIRQPSGKGLEWLAHIWWDDDKYYNPSLKSQLTISKDTSRNQVFLKITSVDTADTATYYCARSYDDYLYYALDYWGQGTSVTVSS
VL: DIVMTQSPATLSVTPGDRVSLSCRASQSISDYLHWYQQKSHESPRLLIKSVSQSISGIPSRFSGSGSGSDFTLSINSVEPEDVGVYYCQNGHSFPLTFGAGTKLELK
- average binding (human IL-6 [20]): 207
- Kd [21]: 280 pM
- koff [21]: 7.7e-05 s⁻¹
- kon [21]: 280000 M⁻¹ s⁻¹
- Kd [22]: 220 pM
- koff [22]: 7.7e-05 s⁻¹
- kon [22]: 360000 M⁻¹ s⁻¹
- Average binding (RU) [23]: 338 RU and 340 RU and 347 RU
- ratio bact/euk [24]: 1.05
- koff [25]: 9.41e-05 s⁻¹
- koff [26]: 8.59e-05 s⁻¹

Further lines, results first:

- koff [8]: 0.000222 s⁻¹
- average binding [9]: 109
B3: Fab 111A7 with the CDR3 methionine changed to H (Fab, V domains shown)
VH: B2 VH with A104H
VL: B2 VL

- koff [12]: 5.46e-05 s⁻¹
- koff [13]: 0.000146 s⁻¹
- koff [14]: 9.81e-05 s⁻¹
- average binding [15]: 118
B5: Fab 111A7M_S (CMC optimized variant of Fab 111A7, CDR3 methionine to serine) (Fab, V domains shown)
VH: B2 VH with A104S
VL: B2 VL
notes: Fab; The VL is that of 111A7; also called M98X: S

- koff [16]: 0.000117 s⁻¹
- koff [17]: 6.78e-05 s⁻¹
- average binding [18]: 141
- koff [19]: 0.000184 s⁻¹
B6: Fab 111A7M_L (CMC optimized variant of Fab 111A7, CDR3 methionine to leucine) (Fab, V domains shown)
VH: B2 VH with A104L
VL: B2 VL
notes: Fab; The VL is that of 111A7; also called M98X: L

Reference: patent US20220073604A1 (ARGENX BVBA, published 2022)
